In assay [1] the target is T1, Homo sapiens factor Bb protein (human, UniProt P00751 260-764).
T1 construct: Bought from CompTech (A155); also called complement factor Bb; human factor Bb
As to the kind of experiment: SPR single cycle kinetics; ratio against VH0/Vκ0. Here is the method:
All single cycle kinetic experiments were run at 25° C. with HBS-P+running buffer (pH 7. 4) (GE Healthcare, Little Chalfont, UK).
(§1) Antibodies were diluted in running buffer to a final concentration of 1 μg/ml, based on concentrations assessed by ELISA titer. At the start of each cycle, antibodies were loaded onto Fc2, Fc3 and Fc4 of the Protein A chip (GE Healthcare, Little Chalfont, UK). IgGs were captured at a flow rate of 10 μl/min to give an immobilization level (RL) of ˜63 RU, the theoretical value to obtain an Rmax of ˜50 RU. The surface was then allowed to stabilize. Single cycle kinetic data was obtained with factor Bb (CompTech, Tyler, USA) as the analyte at a flow rate of 30 μl/min to minimize any potential mass transport limitations. Multiple repeats with the reference chimeric antibody were performed to check the stability of the surface and analyte over the kinetic cycles. The signal from the reference channel Fc1 (no antibody) was subtracted from that of Fc2, Fc3 and Fc4 to correct for differences in non-specific binding to a reference surface. A four point, two-fold dilution range from 0. 78 nM to 6. 25 nM factor Bb without regeneration between each concentration was used. The association phase for the four injections of increasing concentrations of factor Bb was monitored for 200 seconds each time and a single dissociation phase was measured for 200 seconds following the last injection of factor Bb. Regeneration of the Protein A surface was conducted using two injections of 10 mM glycine-HCL pH 1. 5.
Single cycle kinetics using cell culture supernatants were performed as described above. […] The relative KD was calculated by dividing the KD of the VH0/Vκ0 reference antibody by that of the humanized variant assayed in the same experiment.

For assay [2], the target named is T1, Homo sapiens factor Bb protein. As to the kind of experiment: SPR single cycle kinetics, IgG on Protein A chip, factor Bb analyte. As for the experimental part: (§2) In order to assess the binding of all humanized variants, single cycle kinetic analysis was performed on supernatants from transfected cell cultures. […] All single cycle kinetic experiments were run at 25° C. with HBS-P+running buffer (pH 7. 4) (GE Healthcare, Little Chalfont, UK).
as §1
Single cycle kinetics using cell culture supernatants were performed as described above.

The target is the same in assay [3]. The assay can be described thus: BLI Octet, biotinylated antibody on SA biosensors. As for the experimental part: Briefly, biotinylated antibodies were loaded onto SA Biosensors equilibrated in PBS, 0.1% BSA, 0.02% Tween-20 (assay buffer). After a 60 second baseline in assay buffer, antibodies were loaded onto the probes for 180 seconds, followed by another 60 second baseline. Association to human (Comptech) or cynomolgus monkey factor Bb (purified in-house) was measured for 300 seconds, followed by a 300 second dissociation. Kinetic parameters were calculated by the Octet Analysis software using a 1:1 binding model.
A general note: In BLI a coated tip is dipped into the sample, and binding shifts an interference pattern.

For assay [4] the target is unchanged. The assay can be described thus: SPR single cycle kinetics; ratio against VH0/Vκ0. Here is the method:
as §2, §1
(§3) The sensorgrams and fitted data for the single cycle kinetics are shown in FIGS. 1A-1D and the kinetic parameters measured for the interaction of factor Bb with each antibody are shown in Table 7. The relative KD was calculated by dividing the KD of the VH0/Vκ0 reference antibody by that of the humanized variant assayed in the same experiment.
The source holds these as a separate data set.

The target is the same in assay [5]. The assay can be described thus: SPR single cycle kinetics, IgG on Protein A chip, factor Bb analyte. Here is the method:
as §2, §1, §3
This is another data set of the same source.

From patent US20210332115A1 (Sanofi, published 2021) come the findings set out here.

Broadly, the Kd is the equilibrium constant for the complex coming apart. For orientation: koff means a measure of how fast the partners let go of each other. Read a low koff as slow dissociation. By kon is commonly meant the rate constant with which the complex forms.

Where two headings read alike, the source gives them in different places.

T1 sequence (P00751 260-764 limits assumed): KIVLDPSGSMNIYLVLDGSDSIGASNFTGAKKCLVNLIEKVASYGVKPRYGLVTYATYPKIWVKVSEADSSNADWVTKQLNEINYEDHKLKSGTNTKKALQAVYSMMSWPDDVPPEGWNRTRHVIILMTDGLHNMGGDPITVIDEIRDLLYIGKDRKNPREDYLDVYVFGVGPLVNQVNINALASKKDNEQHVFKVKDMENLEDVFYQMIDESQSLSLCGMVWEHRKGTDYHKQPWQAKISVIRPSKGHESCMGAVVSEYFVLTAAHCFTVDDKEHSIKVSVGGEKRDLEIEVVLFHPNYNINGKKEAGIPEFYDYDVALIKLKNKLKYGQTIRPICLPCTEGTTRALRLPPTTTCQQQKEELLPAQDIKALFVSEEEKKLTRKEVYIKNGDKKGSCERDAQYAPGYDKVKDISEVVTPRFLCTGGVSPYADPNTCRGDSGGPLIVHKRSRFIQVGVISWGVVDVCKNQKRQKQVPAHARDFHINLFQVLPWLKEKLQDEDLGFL

B1: VH0/Vκ3 (antibody, V domains shown)
VH: EVQLVESGGALVKPGGSLKLSCAASGFTFSNYAMSWVRQTPEKRLEWVATISNRGSYTYYPDSVKGRFTISRDNAKNTLYLQMSSLRSEDTALYYCARERPMDYWGQGTSVTVSS
VL: DIQMTQSPSTLSASVGDRVTITCKASQDVGTAVAWYQQKPGQPPKLLIYWASTRHTGVPDRFSGSGSGTDFTLTISSLQAEDFAVYFCHQHSSNPLTFGQGTKLEIK
notes: constant regions not restated, the humanisation used IgG4v1 heavy chain and kappa light chain vectors
Regarding B1, the “Relative KD” value in assay [1] amounted to 1.28. In assay [2], this molecule returned a Kd of 2.27 nM, a koff of 0.00128 s⁻¹ and a kon of 563000 M⁻¹ s⁻¹.

B2: Anti-factor Bb mouse monoclonal antibody (antibody, V domains shown)
VH: EVQLVESGGALVKPGGSLKLSCAASGFTFSNYAMSWVRQTPEKRLEWVATISNRGSYTYYPDSVKGRFTISRDNAKNTLYLQMSSLRSEDTALYYCARERPMDYWGQGTSVTVSS
VL: DIVMTQSHKFMSTSVGDRVSITCKASQDVGTAVAWYQQKPGQSPKLLIYWASTRHTGVPDRFTGSGSGTDFTLTITNVQSEDLAVYFCHQHSSNPLTFGAGTKLELK
notes: Mouse monoclonal antibody from a hybridoma; also called murine parental antibody; parent anti-factor Bb antibody
The molecule B2 gave a Kd in assay [3] of 1.9 nM. In other words, the single-digit nanomolar range.

B3: VH5/Vκ0 (antibody, V domains shown)
VH: EVQLVESGGGLVKPGGSLRLSCAASGFTFSNYAMSWVRQTPEKRLEWVATISNRGSYTYYPDSVKGRFTISRDNAKNSLYLQMSSLRSEDTALYYCARERPMDYWGQGTSVTVSS
VL: DIVMTQSHKFMSTSVGDRVSITCKASQDVGTAVAWYQQKPGQSPKLLIYWASTRHTGVPDRFTGSGSGTDFTLTITNVQSEDLAVYFCHQHSSNPLTFGAGTKLELK
notes: Control antibody of the redesign round; cloned into the appropriate expression vector (IgG4v1 and kappa were used in the first round), HEK EBNA supernatant
Take B3: in assay [1], the “Relative KD” value was 235. In assay [2], this molecule came in with a Kd of 416 nM, a koff of 0.00145 s⁻¹ and a kon of 3490 M⁻¹ s⁻¹.

B4: VH1/Vκ0 (control) (antibody, V domains shown)
VH: EVQLVESGGGLVKPGGSLRLSCAASGFTFSNYAMSWVRQAPGKGLEWVATISNRGSYTYYPDSVKGRFTISRDNAKNSLYLQMSSLRSEDTALYYCARERPMDYWGQGTSVTVSS
VL: DIVMTQSHKFMSTSVGDRVSITCKASQDVGTAVAWYQQKPGQSPKLLIYWASTRHTGVPDRFTGSGSGTDFTLTITNVQSEDLAVYFCHQHSSNPLTFGAGTKLELK
Turning to B4, in assay [4], the “Relative KD” value turned out to be 1.76. Further, in assay [5], the Kd came to 3.09 nM, the koff came to 0.00116 s⁻¹ and the kon was determined as 376000 M⁻¹ s⁻¹.

B5: VH7/Vκ0 (antibody, V domains shown)
VH: EVQLVESGGGLVKPGGSLRLSCAASGFTFSNYAMSWVRQTPEKRLEWVATISNRGSYTYYPDSVKGRFTISRDNAKNSLYLQMNSLRAEDTALYYCARERPMDYWGQGTLVTVSS
VL: DIVMTQSHKFMSTSVGDRVSITCKASQDVGTAVAWYQQKPGQSPKLLIYWASTRHTGVPDRFTGSGSGTDFTLTITNVQSEDLAVYFCHQHSSNPLTFGAGTKLELK
notes: as for B3
For B5, the “Relative KD” value in assay [1] came to 4.25. In assay [2], this molecule showed a Kd of 7.53 nM, a koff of 0.00207 s⁻¹ and a kon of 274000 M⁻¹ s⁻¹.

B6: VH6/Vκ0 (antibody, V domains shown)
VH: EVQLVESGGGLVKPGGSLRLSCAASGFTFSNYAMSWVRQAPGKRLEWVATISNRGSYTYYPDSVKGRFTISRDNAKNSLYLQMNSLRAEDTALYYCARERPMDYWGQGTLVTVSS
VL: DIVMTQSHKFMSTSVGDRVSITCKASQDVGTAVAWYQQKPGQSPKLLIYWASTRHTGVPDRFTGSGSGTDFTLTITNVQSEDLAVYFCHQHSSNPLTFGAGTKLELK
notes: as for B3
Regarding B6, the “Relative KD” value in assay [1] came to 1.86. In assay [2], the Kd came to 3.29 nM, the koff is 0.00197 s⁻¹ and the kon turned out to be 598000 M⁻¹ s⁻¹.

B7: VH5/Vκ6 (antibody, V domains shown)
VH: EVQLVESGGGLVKPGGSLRLSCAASGFTFSNYAMSWVRQTPEKRLEWVATISNRGSYTYYPDSVKGRFTISRDNAKNSLYLQMSSLRSEDTALYYCARERPMDYWGQGTSVTVSS
VL: DIVMTQSPSFLSASVGDRVTITCKASQDVGTAVAWYQQKPGKAPKLLIYWASTRHTGVPDRFTGSGSGTDFTLTISSLQSEDFAVYFCHQHSSNPLTFGQGTKLEIK
notes: Redesigned variant; cloned into the appropriate expression vector (IgG4v1 and kappa were used in the first round), HEK EBNA supernatant
On to B7, for which, in assay [1], the “Relative KD” value is 73.5. In assay [2], this molecule had a Kd of 130 nM, a koff of 0.0173 s⁻¹ and a kon of 133000 M⁻¹ s⁻¹.

B8: VH3/Vκ5 (antibody, V domains shown)
VH: EVQLVESGGGLVKPGGSLRLSCAASGFTFSNYAMSWVRQAPGKGLEWVATISNRGSYTYYADSVKGRFTISRDNAKNSLYLQMNSLRAEDTALYYCARERPMDYWGQGTLVTVSS
VL: DIQMTQSPSTLSASVGDRVTITCRASQDVGTAVAWYQQKPGQPPKLLIYWASTRHTGVPDRFSGSGSGTDFTLTISSLQAEDFATYYCHQHSSNPLTFGQGTKLEIK
Regarding B8, the “Relative KD” value in assay [4] was found to be 8.98. In assay [5], binding was characterised by a dissociation constant (Kd) of 15.8 nM, the dissociation rate constant (koff) stood at 0.00451 s⁻¹ and the kon was determined as 285000 M⁻¹ s⁻¹.

B9: VH5/Vκ7 (antibody, V domains shown)
VH: EVQLVESGGGLVKPGGSLRLSCAASGFTFSNYAMSWVRQTPEKRLEWVATISNRGSYTYYPDSVKGRFTISRDNAKNSLYLQMSSLRSEDTALYYCARERPMDYWGQGTSVTVSS
VL: DIQMTQSPSTLSASVGDRVTITCKASQDVGTAVAWYQQKPGKAPKLLIYWASTRHTGVPDRFSGSGSGTDFTLTISSLQAEDFAVYFCHQHSSNPLTFGQGTKLEIK
notes: as for B7
In the case of B9, the “Relative KD” value in assay [1] was found to be 294. In assay [2], this molecule displayed a Kd of 521 nM, a koff of 0.00166 s⁻¹ and a kon of 3200 M⁻¹ s⁻¹.

B10: VH7/Vκ6 (antibody, V domains shown)
VH: EVQLVESGGGLVKPGGSLRLSCAASGFTFSNYAMSWVRQTPEKRLEWVATISNRGSYTYYPDSVKGRFTISRDNAKNSLYLQMNSLRAEDTALYYCARERPMDYWGQGTLVTVSS
VL: DIVMTQSPSFLSASVGDRVTITCKASQDVGTAVAWYQQKPGKAPKLLIYWASTRHTGVPDRFTGSGSGTDFTLTISSLQSEDFAVYFCHQHSSNPLTFGQGTKLEIK
notes: as for B7
Take B10: in assay [1], the “Relative KD” value was 10.2. In assay [2], binding was characterised by a dissociation constant (Kd) of 18 nM, the koff was found to be 0.00303 s⁻¹ and the kon was found to be 168000 M⁻¹ s⁻¹.

B11: VH0/Vκ7 (antibody, V domains shown)
VH: EVQLVESGGALVKPGGSLKLSCAASGFTFSNYAMSWVRQTPEKRLEWVATISNRGSYTYYPDSVKGRFTISRDNAKNTLYLQMSSLRSEDTALYYCARERPMDYWGQGTSVTVSS
VL: DIQMTQSPSTLSASVGDRVTITCKASQDVGTAVAWYQQKPGKAPKLLIYWASTRHTGVPDRFSGSGSGTDFTLTISSLQAEDFAVYFCHQHSSNPLTFGQGTKLEIK
notes: as for B3
Consider B11, for which, in assay [1], the “Relative KD” value was 1.19. In assay [2], this molecule registered a Kd of 2.11 nM, a koff of 0.00105 s⁻¹ and a kon of 496000 M⁻¹ s⁻¹.

B12: VH0/Vκ6 (antibody, V domains shown)
VH: EVQLVESGGALVKPGGSLKLSCAASGFTFSNYAMSWVRQTPEKRLEWVATISNRGSYTYYPDSVKGRFTISRDNAKNTLYLQMSSLRSEDTALYYCARERPMDYWGQGTSVTVSS
VL: DIVMTQSPSFLSASVGDRVTITCKASQDVGTAVAWYQQKPGKAPKLLIYWASTRHTGVPDRFTGSGSGTDFTLTISSLQSEDFAVYFCHQHSSNPLTFGQGTKLEIK
notes: as for B3
For B12, the “Relative KD” value in assay [1] was 1.34. In assay [2], this molecule gave a Kd of 2.37 nM, a koff of 0.00126 s⁻¹ and a kon of 534000 M⁻¹ s⁻¹.
